Measured values as given in patent publication US20040162238A1.
Like-named read-outs stand apart in the source and are kept apart here.

What was measured:
Assay in all cases: cell-based or functional assay
[1] = target: GPCR73a receptor (Homo sapiens (Human)) (UniProt Q8TCW9)
[2] = target: Zven1 receptor on Wky12-22 cells (rat)
[3] = target: GPCR73b receptor (Homo sapiens (Human)) (UniProt Q8NFJ6)
[4] = target: GPCR73a receptor (Homo sapiens (Human)) (UniProt Q8TCW9); remark: listed apart in the source
[5] = target: GPCR73b receptor (Homo sapiens (Human)) (UniProt Q8NFJ6); remark: listed apart in the source

GPCR73a receptor (Homo sapiens (Human)), sequence (Q8TCW9 whole entry): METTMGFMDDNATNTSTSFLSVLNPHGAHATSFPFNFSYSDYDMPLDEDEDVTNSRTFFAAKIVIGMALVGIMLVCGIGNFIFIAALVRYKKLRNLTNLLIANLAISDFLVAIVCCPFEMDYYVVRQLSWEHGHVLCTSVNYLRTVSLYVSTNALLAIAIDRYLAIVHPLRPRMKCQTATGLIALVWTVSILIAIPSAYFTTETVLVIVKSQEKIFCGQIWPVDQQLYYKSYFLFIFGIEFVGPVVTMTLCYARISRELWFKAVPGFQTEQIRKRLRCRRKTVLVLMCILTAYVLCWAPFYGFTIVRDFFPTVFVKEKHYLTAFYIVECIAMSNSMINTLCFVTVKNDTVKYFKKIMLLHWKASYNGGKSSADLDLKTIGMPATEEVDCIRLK
GPCR73b receptor (Homo sapiens (Human)), sequence (Q8NFJ6 whole entry): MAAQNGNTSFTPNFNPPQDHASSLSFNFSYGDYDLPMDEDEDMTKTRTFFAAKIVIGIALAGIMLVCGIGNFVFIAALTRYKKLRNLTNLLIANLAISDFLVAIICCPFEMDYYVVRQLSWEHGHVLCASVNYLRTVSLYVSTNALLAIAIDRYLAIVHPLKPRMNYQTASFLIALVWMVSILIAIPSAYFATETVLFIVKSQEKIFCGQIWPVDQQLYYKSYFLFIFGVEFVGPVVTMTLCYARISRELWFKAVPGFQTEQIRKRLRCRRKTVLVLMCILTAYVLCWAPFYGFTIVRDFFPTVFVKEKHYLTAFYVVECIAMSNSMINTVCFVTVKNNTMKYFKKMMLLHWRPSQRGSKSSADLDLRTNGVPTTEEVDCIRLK

B1: Zven1 protein produced in baculovirus with a C-terminal Glu-Glu tag (ligand)
chain: AVITGACDKDSQCGGGMCCAVSIWVKSIRICTPMGKLGDSCHPLTRKVPFFGRRMHHTCPCLPGLACLRTSFNRFICLAQKGLEYMPMD
[1]
  SRE luciferase fold-induction at 1 ng/ml, Zven1 heated at 56 C for 30 minutes, Rat2 cells with GPCR73a (fold-induction): 1.8
  SRE luciferase fold-induction at 1 ng/ml, fresh Zven1, Rat2 cells with GPCR73a (fold-induction): 2.5
  SRE luciferase fold-induction at 3.2 ng/ml, Zven1 heated at 56 C for 30 minutes, Rat2 cells with GPCR73a (fold-induction): 3.7
  SRE luciferase fold-induction at 3.2 ng/ml, fresh Zven1, Rat2 cells with GPCR73a (fold-induction): 7.1
  SRE luciferase fold-induction at 10 ng/ml, Zven1 heated at 56 C for 30 minutes, Rat2 cells with GPCR73a (fold-induction): 10
  SRE luciferase fold-induction at 10 ng/ml, fresh Zven1, Rat2 cells with GPCR73a (fold-induction): 13.1
  SRE luciferase fold-induction at 32 ng/ml, Zven1 heated at 56 C for 30 minutes, Rat2 cells with GPCR73a (fold-induction): 14.8
  SRE luciferase fold-induction at 32 ng/ml, fresh Zven1, Rat2 cells with GPCR73a (fold-induction): 18.7
  SRE luciferase fold-induction at 100 ng/ml, Zven1 heated at 56 C for 30 minutes, Rat2 cells with GPCR73a (fold-induction): 18.6
  SRE luciferase fold-induction at 100 ng/ml, fresh Zven1, Rat2 cells with GPCR73a (fold-induction): 20.5
[2]
  ERK-Map kinase activity EC50 in Wky12-22 cells (Arrayscan): 500 pM

B2: Zven2 ("endocrine-gland-derived vascular endothelial growth factor") protein purchased from Peprotech, Inc. (ligand)
chain: AVITGACERDVQCGAGTCCAISLWLRGLRMCTPLGREGEECHPGSHKVPFFRKRKHHTCPCLPNLLCSRFPDGRYRCSMDLKNINF
[1]
  SRE luciferase fold-induction at 1 ng/ml, Rat2 cells with GPCR73a (fold-induction): 1.2
  SRE luciferase fold-induction at 3.2 ng/ml, Rat2 cells with GPCR73a (fold-induction): 1.6
  SRE luciferase fold-induction at 10 ng/ml, Rat2 cells with GPCR73a (fold-induction): 2.5
  SRE luciferase fold-induction at 32 ng/ml, Rat2 cells with GPCR73a (fold-induction): 5.8
  SRE luciferase fold-induction at 100 ng/ml, Rat2 cells with GPCR73a (fold-induction): 11.4
  SRE luciferase fold-induction at 320 ng/ml, Rat2 cells with GPCR73a (fold-induction): 24.4
  SRE luciferase fold-induction at 1000 ng/ml, Rat2 cells with GPCR73a (fold-induction): 20
[3]
  SRE luciferase fold-induction at 1 ng/ml, Rat2 cells with GPCR73b (fold-induction): 1.1
  SRE luciferase fold-induction at 3.2 ng/ml, Rat2 cells with GPCR73b (fold-induction): 1.3
  SRE luciferase fold-induction at 10 ng/ml, Rat2 cells with GPCR73b (fold-induction): 1.8
  SRE luciferase fold-induction at 32 ng/ml, Rat2 cells with GPCR73b (fold-induction): 2.8
  SRE luciferase fold-induction at 100 ng/ml, Rat2 cells with GPCR73b (fold-induction): 5.6
  SRE luciferase fold-induction at 320 ng/ml, Rat2 cells with GPCR73b (fold-induction): 8.3
  SRE luciferase fold-induction at 1000 ng/ml, Rat2 cells with GPCR73b (fold-induction): 8.4
[4]
  SRE luciferase fold-induction at 1 ng/ml, Rat2 cells with GPCR73a (fold-induction): 0.95
  SRE luciferase fold-induction at 3.2 ng/ml, Rat2 cells with GPCR73a (fold-induction): 1.3
  SRE luciferase fold-induction at 10 ng/ml, Rat2 cells with GPCR73a (fold-induction): 2.6
  SRE luciferase fold-induction at 32 ng/ml, Rat2 cells with GPCR73a (fold-induction): 7.2
  SRE luciferase fold-induction at 320 ng/ml, Rat2 cells with GPCR73a (fold-induction): 20.5
  SRE luciferase fold-induction at 1000 ng/ml, Rat2 cells with GPCR73a (fold-induction): 15
[5]
  SRE luciferase fold-induction at 3.2 ng/ml, Rat2 cells with GPCR73b (fold-induction): 1.4
  SRE luciferase fold-induction at 32 ng/ml, Rat2 cells with GPCR73b (fold-induction): 2.7
  SRE luciferase fold-induction at 100 ng/ml, Rat2 cells with GPCR73b (fold-induction): 4.1
  SRE luciferase fold-induction at 320 ng/ml, Rat2 cells with GPCR73b (fold-induction): 5.8
  SRE luciferase fold-induction at 1000 ng/ml, Rat2 cells with GPCR73b (fold-induction): 6.1
